Values of other authors, collected in paper PMC8364556.

Target: IL-10R complex (Homo sapiens) (UniProt Q13651)
Sequence (Q13651 22-235, chain 1 of 2): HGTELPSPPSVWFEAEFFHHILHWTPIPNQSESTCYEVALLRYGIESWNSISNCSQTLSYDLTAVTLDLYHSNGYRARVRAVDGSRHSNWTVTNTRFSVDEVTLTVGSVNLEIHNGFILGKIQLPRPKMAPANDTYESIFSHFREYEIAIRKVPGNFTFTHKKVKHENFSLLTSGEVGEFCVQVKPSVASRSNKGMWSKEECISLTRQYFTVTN
Sequence (Q08334 20-220, chain 2 of 2, further chain): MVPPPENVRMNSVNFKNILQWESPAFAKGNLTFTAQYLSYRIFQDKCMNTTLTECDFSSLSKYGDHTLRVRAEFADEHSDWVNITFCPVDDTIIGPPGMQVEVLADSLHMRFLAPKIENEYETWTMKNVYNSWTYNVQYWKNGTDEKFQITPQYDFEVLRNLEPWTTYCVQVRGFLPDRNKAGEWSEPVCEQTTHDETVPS

Chain of IL-10 (P22301 19-178): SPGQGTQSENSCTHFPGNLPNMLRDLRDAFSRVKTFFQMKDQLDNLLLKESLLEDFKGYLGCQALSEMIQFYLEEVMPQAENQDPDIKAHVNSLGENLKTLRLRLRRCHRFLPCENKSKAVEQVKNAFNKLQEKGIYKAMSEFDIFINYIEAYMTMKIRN

- Kd: 0.56 nM
Substance: IL-10 (from UniProt P22301)
